Experimental data: PMC10128040, “Structural Elucidation of a Protective B Cell Epitope on Outer Surface Protein C (OspC) of the Lyme Disease Spirochete, Borreliella burgdorferi” (mBio, 2023)

Experiments:
[1] = target: recombinant OspC type K (OspCK), residues 38 to 202 (B. burgdorferi strain 297); test: crystal structure; OspCB alone (22°C, 100 mM sodium phosphate citrate pH 4.2, 41.9% PEG 600; 1.5 Å) and OspCK alone (4°C, 100 mM Tris pH 8.5, 40% PEG 400, 200 mM LiSO4; 1.9 Å); P2_(1)
[2] = target: recombinant OspC type B (OspCB), residues 38 to 202 (B. burgdorferi strain ZS7) (UniProt Q44977); test: as above
[3] = target: the molecule itself; test: crystal structure; B5 Fab complexed with OspCA 1:1, 10 mg/mL; sitting drop, 22°C, 100 mM sodium cacodylate pH 6.5, 5% PEG 8K, 40% MPD; 2.7 Å, P2_(1)2_(1)2
[4] = target: T1, biotinylated recombinant OspC type B (OspCB) (Borreliella burgdorferi strain ZS7, …, UniProt Q44977, biotinylated (site not stated)); test: ELISA; capture ELISA: B5 IgG coated at 1 μg/mL in PBS; biotinylated OspC types A, B, K diluted 2-fold from 20 μg/mL; detected with avidin-HRP; conditions: both partners purified
T1 construct: Outer surface protein C type B, B. burgdorferi strain ZS7, residues 38 to 202; also called biotinylated OspC type B; biotin-tagged recombinant OspC type B; not shown: deca-histidine, N-terminal, cleaved

[5] = target: T2, biotinylated recombinant OspC type A (OspCA) (Borreliella burgdorferi strain B31, …, UniProt Q07337, biotinylated (site not stated)); test: as above; conditions: both partners purified
T2 construct: Outer surface protein C type A, B. burgdorferi strain B31, residues 38 to 201; also called biotinylated OspCA; biotin-tagged recombinant OspC type A; not shown: deca-histidine, N-terminal, cleaved; SUMO, N-terminal, cleaved

[6] = target: native OspC type A (OspCA) on the surface of viable B. burgdorferi strain B313 (B. burgdorferi (endogenous in strain B313)) (UniProt Q07337); test: flow cytometry on cells; 5 x 10^6 live B. burgdorferi B313 cells incubated with 10 μg/mL chimeric B5 IgG1 at 37°C for 1 h in BSK-II; goat anti-human IgG-Alexa 647; BD FACSCalibur
[7] = target: T3, recombinant OspC type A (OspCA), residues 38 to 201 (B. burgdorferi strain B31, UniProt Q07337); test: crystal structure; B5 Fab complexed with OspCA 1:1, 10 mg/mL; sitting drop, 22°C, 100 mM sodium cacodylate pH 6.5, 5% PEG 8K, 40% MPD; 2.7 Å, P2_(1)2_(1)2; conditions: both partners purified
T3 construct: Outer surface protein C type A, B. burgdorferi strain B31, residues 38 to 201; Homodimer; also called rOspC type A; outer surface protein C; not shown: deca-histidine, N-terminal, cleaved; SUMO, N-terminal, cleaved

[8] = target: T2, biotinylated recombinant OspC type A …; test: BLI; biotinylated OspCA (3 μg/mL) captured on streptavidin biosensors; MAb B5 100 to 1.56 nM, 5 min association, 30 min dissociation; PBS with 2% BSA; 1:2 bivalent analyte model; apparent; Octet RED96e; conditions: both partners purified

recombinant OspC type K (OspCK), residues 38 to 202 (domain or fragment)
stoichiometry N [1]: 2

recombinant OspC type B (OspCB), residues 38 to 202 (from UniProt Q44977 38-202) (domain or fragment)
stoichiometry N [2]: 2

B1: recombinant OspC type A (OspCA), residues 38 to 201 (domain or fragment, B. burgdorferi strain B31, UniProt Q07337 38-201, looked up)
chain: KGPNLTEISKKITDSNAVLLAVKEVEALLSSIDEIAAKAIGKKIHQNNGLDTENNHNGSLLAGAYAISTLIKQKLDGLKNEGLKEKIDAAKKCSETFTNKLKEKHTDLGKEGVTDADAKEAILKTNGTKTKGAEELGKLFESVEVLSKAAKEMLANSVKELTSP
notes: Outer surface protein C type A, B. burgdorferi strain B31, residues 38 to 201; Homodimer; also called rOspC type A; outer surface protein C; not shown: deca-histidine, N-terminal, cleaved; SUMO, N-terminal, cleaved
stoichiometry N [3]: 2

B2: chimeric B5 IgG1 (mouse B5 VH and VL on human IgG1 Fc and kappa light chain) (antibody, V domains shown)
VH: EVQLEESGPEQKKPGETVMMSCKASGYTFTDHSMHWVKQAPGKGLKWMGWINTETGEPTCADDFKGRFALSLETSSRTAFLQINNLKNEDTAIYFCIGRWGYYVYWGQGTTLVVSS
VL: DIQMTQSPASLSVSVGESVTIICRASENINSNLAWYQQKQGKPPQLLVYAATNLAGGVPSRFSGSGSGTQYSLKINSLQSEDFGTYYCQHVWGSPWTFGGGTKLEIK
notes: mouse B5 VH, as the VH of the heavy chain of m1; human IgG1 heavy chain constant region from the 'human IgG1 Fc' expression vector; mouse B5 VL, as the VL of the light chain of m1; human kappa light chain constant region from the expression vector; IgG1, kappa; also called chimeric derivative of B5; source: Expi293 cells, transfected, purified; copies: 2 + 2
binding result [4]: no binding (tested: 20 μg/mL)
binding result [5]: binds
MFI [6]: > 3200

B3: B5 Fab fragment (Fab, V domains shown)
VH: EVQLEESGPEQKKPGETVMMSCKASGYTFTDHSMHWVKQAPGKGLKWMGWINTETGEPTCADDFKGRFALSLETSSRTAFLQINNLKNEDTAIYFCIGRWGYYVYWGQGTTLVVSS
VL: DIQMTQSPASLSVSVGESVTIICRASENINSNLAWYQQKQGKPPQLLVYAATNLAGGVPSRFSGSGSGTQYSLKINSLQSEDFGTYYCQHVWGSPWTFGGGTKLEIK
notes: VH and CH1 of mouse MAb B5; VL and CL of mouse MAb B5; Fab of the mouse IgG2a MAb B5; also called Fab B5; source: papain digestion of B5 IgG from the CDC; Fc depleted by protein A FPLC; purified by SEC (Superdex 200)
stoichiometry N [7]: 1

B4: B5 IgG (as used for BLI and HX-MS; mouse IgG2a or chimeric IgG1 not told) (antibody, V domains shown)
VH: EVQLEESGPEQKKPGETVMMSCKASGYTFTDHSMHWVKQAPGKGLKWMGWINTETGEPTCADDFKGRFALSLETSSRTAFLQINNLKNEDTAIYFCIGRWGYYVYWGQGTTLVVSS
VL: DIQMTQSPASLSVSVGESVTIICRASENINSNLAWYQQKQGKPPQLLVYAATNLAGGVPSRFSGSGSGTQYSLKINSLQSEDFGTYYCQHVWGSPWTFGGGTKLEIK
notes: mouse B5 VH, as the VH of the heavy chain of m1; mouse B5 VL, as the VL of the light chain of m1; The methods say the chimeric IgG1 was used for dot blot and flow cytometry, which may mean that the mouse IgG2a was used here; also called MAb B5; B5 MAb; copies: 2 + 2
Kd [8]: ~0.2 nM
